{"source": "patent US20140298494A1", "about": "“ANIMAL MODEL OF AUTISM” (Beth Israel Deaconess Medical Center, Inc., priority 2011, published 2014)", "molecules": {"B1": {"name": "transgenic Ube3a: full-length FLAG-tagged transgenic Ube3a ubiquitin ligase immunoprecipitated from transgenic mouse cortical lysate (protein, UniProt O08759 1-870, looked up)", "chain": "MATACKRSPGESQSEDIEASRMKRAAAKHLIERYYHQLTEGCGNEACTNEFCASCPTFLRMDNNAAAIKALELYKINAKLCDPHPSKKGASSAYLENSKGASNNSEIKMNKKEGKDFKDVIYLTEEKVYEIYEFCRESEDYSPLIRVIGRIFSSAEALVLSFRKVKQHTKEELKSLQEKDEDKDEDEKEKAACSAAAMEEDSEASSSRMGDSSQGDNNVQKLGPDDVTVDIDAIRRVYSSLLANEKLETAFLNALVYLSPNVECDLTYHNVYTRDPNYLNLFIIVMENSNLHSPEYLEMALPLFCKAMCKLPLEAQGKLIRLWSKYSADQIRRMMETFQQLITYKVISNEFNSRNLVNDDDAIVAASKCLKMVYYANVVGGDVDTNHNEEDDEEPIPESSELTLQELLGDERRNKKGPRVDPLETELGVKTLDCRKPLISFEEFINEPLNDVLEMDKDYTFFKVETENKFSFMTCPFILNAVTKNLGLYYDNRIRMYSERRITVLYSLVQGQQLNPYLRLKVRRDHIIDDALVRLEMIAMENPADLKKQLYVEFEGEQGVDEGGVSKEFFQLVVEEIFNPDIGMFTYDEATKLFWFNPSSFETEGQFTLIGIVLGLAIYNNCILDVHFPMVVYRKLMGKKGTFRDLGDSHPVLYQSLKDLLEYEGSVEDDMMITFQISQTDLFGNPMMYDLKENGDKIPITNENRKEFVNLYSDYILNKSVEKQFKAFRRGFHMVTNESPLKYLFRPEEIELLICGSRNLDFQALEETTEYDGGYTRESVVIREFWEIVHSFTDEQKRLFLQFTTGTDRAPVGGLGKLKMIIAKNGPDTERLPTSHTCFNVLLLPEYSSKEKLKERLLKAITYAKGFGML", "modifications": "full-length FLAG tag", "notes": "full-length FLAG-tagged transgenic Ube3a ubiquitin ligase immunoprecipitated from transgenic mouse cortical lysate"}}, "key": {"non-NMDA receptor": {"test_system": "non-NMDA receptor", "test": "inhibition of minimal-stimulation single fiber EPSC amplitude by γ-DGG in layer 2/3 barrel cortex pyramidal neurons (brain slices)", "assay_type": "cell-based, mouse", "conditions": "γ-DGG 300 μM; Ube3a (2×) transgenic vs wild-type neurons; P=0.0127, n=7-8", "experimental": "The vesicle glutamate content was estimated by the relative inhibition of mean single fiber EPSC amplitude by the fast off-rate, non-NMDA receptor blocker γ-DGG (300 μM). The higher the percentage inhibition by γ-DGG, the lower the concentration of synaptic glutamate. Detailed protocols are available in the Extended Experimental Procedures.\nThe vesicle glutamate content was estimated by the relative inhibition of mean single fiber EPSC amplitude by the fast off-rate, non-NMDA receptor blocker γ-DGG (300 μM). The higher the percentage inhibition by γ-DGG, the lower the concentration of synaptic glutamate (see ref. 21). To selectively stimulate a single fiber in layer 2/3 of the barrel cortex, minimal stimuli were delivered through ACSF-filled bipolar glass electrodes pulled from 2.0 mm OD dual barrel theta capillary glass (Warner Instruments). The tip of the stimulating electrodes is about 2 μm. To establish a minimal stimulation, we first sought for the highest stimulus that gave all failures. […] To acquire a reasonable number of EPSCs from 40-100 trials in both baseline and γ-DGG conditions at 0.3 Hz, we adjusted the stimulation intensity to give about 10% failures (WT: 9.7±2.4%, n=8; 1×: 9.7±3.4%, n=8; 2×: 11.6±4.6%, […]; F(2, 21)=0.106, P=0.90). Under this failure rate, the calculated quantal content was about 2. […]"}, "recombinant Arc [1]": {"test_system": "recombinant Arc"}, "recombinant Arc [2]": {"test_system": "recombinant Arc", "test": "in vitro target protein degradation (ubiquitination) assay with immunoprecipitated Ube3a-FLAG", "assay_type": "biochemical", "conditions": "FLAG antibody immunoprecipitate from Tg cortical lysate; control Wt 1.26±0.04; P=0.01; n=3 independent in vitro assays", "experimental": "Ube3a expression was confirmed by western blot of cortical lysates using both anti-FLAG M2 antibody (Sigma) and anti-Ube3a (BD Biosciences). The ubiquitin ligase activity of Ube3a was assayed by an in vitro target protein degradation assay. Ube3a was immunoprecipitated using anti-FLAG M2 antibodies and protein G magnetic beads (NEB) and eluted in non-denaturing conditions using a 3× FLAG peptide (Sigma). 1 μg of recombinant ARC (BD Biosciences) was added to 10 μl of immunoprecipitated Ube3a in the presence of 50 ng E1 and 100 ng UbcH7 enzymes and 4 μg HA-ubiquitin (Boston Bioproducts) as in (19). Western blots were probed with anti-ARC (Santa Cruz) and quantified using ImageJ (NIH). Detailed protocols are available in the Extended Experimental Procedures.\nCortical lysates were prepared in PBS with 1% TritonX-100 and protease inhibitors, incubated with 4 μg of anti-FLAG antibodies overnight, and with 50 μl of protein G magnetic beads (NEB) for immunoprecipitation (IP). Beads were washed 5× with PBS and Ube3a-FLAG was eluted with 3× FLAG peptide (Sigma) in 100 μl PBS, and IP success was confirmed by western blot. […]"}}, "note": "Entries after “also recorded” stand apart in the source; their conditions may differ.", "data": [{"molecule": "N[C@H](CCC(=O)NCC(=O)O)C(=O)O", "note": "[γDGG, γ-D-glutamylglycine]", "values": [{"measurement": "Reduction of EPSC amplitude by γ-DGG", "setting": "non-NMDA receptor", "result": "reduce EPSC amplitude to a greater extent in Ube3a (2×) transgenic than in wild-type neurons; also recorded: increased γDGG inhibition in Ube3a transgenic mice"}]}, {"molecule": "FLAG-tagged full length Ube3a (transgenic mouse Ube3a with C-terminal 3×FLAG tag, immunoprecipitated from cortical lysates of transgenic mice)", "values": [{"measurement": "in vitro target protein degradation assay (Arc on western blot probed with anti-ARC, quantified with ImageJ)", "setting": "recombinant Arc [1]", "result": "mean±SEM Wt: 1.26±0.04 vs. Tg: 0.58±0.16; P=0.01 by t test; n=3 independent in vitro assays"}]}, {"molecule": "B1", "values": [{"measurement": "Recombinant Arc level after in vitro degradation (western blot, mean±SEM)", "setting": "recombinant Arc [2]", "result": "0.58±0.16"}]}]}
